Experimental data published in IntAct's records for PubMed 31515488.

B1: Nuclear pore glycoprotein p62 (Homo sapiens), P37198 (parent)
chain: MSGFNFGGTGAPTGGFTFGTAKTATTTPATGFSFSTSGTGGFNFGAPFQPATSTPSTGLFSLATQTPATQTTGFTFGTATLASGGTGFSLGIGASKLNLSNTAATPAMANPSGFGLGSSNLTNAISSTVTSSQGTAPTGFVFGPSTTSVAPATTSGGFSFTGGSTAQPSGFNIGSAGNSAQPTAPATLPFTPATPAATTAGATQPAAPTPTATITSTGPSLFASIATAPTSSATTGLSLCTPVTTAGAPTAGTQGFSLKAPGAASGTSTTTSTAATATATTTSSSSTTGFALNLKPLAPAGIPSNTAAAVTAPPGPGAAAGAAASSAMTYAQLESLINKWSLELEDQERHFLQQATQVNAWDRTLIENGEKITSLHREVEKVKLDQKRLDQELDFILSQQKELEDLLSPLEELVKEQSGTIYLQHADEEREKTYKLAENIDAQLKRMAQDLKDIIEHLNTSGAPADTSDPLQQICKILNAHMDSLQWIDQNSALLQRKVEEVTKVCEGRRKEQERSFRITFD
partner: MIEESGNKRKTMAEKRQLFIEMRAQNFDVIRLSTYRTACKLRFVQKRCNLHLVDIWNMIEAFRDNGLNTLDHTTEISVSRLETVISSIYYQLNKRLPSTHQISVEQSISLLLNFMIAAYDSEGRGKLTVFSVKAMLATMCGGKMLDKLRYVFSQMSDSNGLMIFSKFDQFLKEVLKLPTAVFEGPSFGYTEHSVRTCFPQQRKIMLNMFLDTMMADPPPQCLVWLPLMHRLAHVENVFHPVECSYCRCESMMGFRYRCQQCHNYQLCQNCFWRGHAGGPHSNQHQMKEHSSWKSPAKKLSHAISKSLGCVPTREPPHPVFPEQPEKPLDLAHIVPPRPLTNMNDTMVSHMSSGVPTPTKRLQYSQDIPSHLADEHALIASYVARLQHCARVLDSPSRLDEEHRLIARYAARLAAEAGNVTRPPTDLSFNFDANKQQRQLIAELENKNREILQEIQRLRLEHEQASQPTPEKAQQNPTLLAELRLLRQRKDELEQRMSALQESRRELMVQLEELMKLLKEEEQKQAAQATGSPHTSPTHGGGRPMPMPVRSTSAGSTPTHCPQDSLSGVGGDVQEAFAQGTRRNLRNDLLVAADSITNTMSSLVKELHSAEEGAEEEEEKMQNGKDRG
B2: Coiled-coil domain-containing protein 172 (Homo sapiens), P0C7W6 (parent)
chain: MSLESLFQHIIFTEHQAEESRRLMREVRSEITRCREKIKKATEELNEEKIKLESKVQQFFEKSFFLQLLKAHENALEKQYSEITNHRNMLLQTFEAIKKQMIEEEDKFIKEITDFNNDYEITKKRELLMKENVKIEISDLENQANMLKSEMKSMEHDSSQLNELQKQKSELIQELFTLQRKLKVFEDEENESICTTKYLEAEKIKISEKPQNDTECLRLKKELELYKEDDMESVYEALQTEIEFLELTLAQKDLQESK
B3: Tektin-4 (Homo sapiens), Q8WW24 (parent)
chain: MAQTVPPCELPCKEYDVARNTGAYTSSGLATASFRTSKYLLEEWFQNCYARYHQAFADRDQSERQRHESQQLATETQALAQRTQQDSTRTVGERLQDTHSWKSELQREMEALAAETNLLLAQKQRLERALDATEVPFSITTDNLQCRERREHPNLVRDHVETELLKEAELIRNIQELLKRTIMQAVSQIRLNREHKETCEMDWSDKMEAYNIDETCGRHHSQSTEVQAHPYSTTFQESASTPETRAKFTQDNLCRAQRERLASANLRVLVDCILRDTSEDLRLQCDAVNLAFGRRCEELEDARYKLHHHLHKTLREITDQEHNVAALKQAIKDKEAPLHVAQTRLYLRSHRPNMELCRDAAQFRLLSEVEELNMSLTALREKLLEAEQSLRNLEDIHMSLEKDIAAMTNSLFIDRQKCMAHRTRYPTILQLAGYQ

Variants of: B1
Details: with dtnb_human DTNB

effect of a mutation on the interaction | Variant
with no effect | A279T

Variants of: B2
Details: with fa13c_human FAM13C

effect of a mutation on the interaction | Variant
with no effect | I10V
disrupting interaction strength | F60L

Variants of: B2
Details: with dctn2_human DCTN2, Q13561
Chain of dctn2_human DCTN2, Q13561 (Q13561 whole entry): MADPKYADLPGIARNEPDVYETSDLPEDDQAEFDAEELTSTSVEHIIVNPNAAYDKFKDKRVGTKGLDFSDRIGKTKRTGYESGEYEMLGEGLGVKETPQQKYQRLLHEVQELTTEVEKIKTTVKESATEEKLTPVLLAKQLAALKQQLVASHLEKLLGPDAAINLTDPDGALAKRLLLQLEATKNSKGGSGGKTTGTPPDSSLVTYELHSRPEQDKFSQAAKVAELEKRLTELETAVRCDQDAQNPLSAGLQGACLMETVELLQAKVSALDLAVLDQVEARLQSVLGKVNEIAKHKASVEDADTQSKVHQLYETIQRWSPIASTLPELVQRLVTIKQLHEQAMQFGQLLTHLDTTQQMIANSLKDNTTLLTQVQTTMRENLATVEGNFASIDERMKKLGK

effect of a mutation on the interaction | Variant
with no effect | I10V
disrupting interaction strength | F60L

Variants of: B2
Details: with smce1_human SMARCE1, Q969G3
Chain of smce1_human SMARCE1, Q969G3 (Q969G3 whole entry): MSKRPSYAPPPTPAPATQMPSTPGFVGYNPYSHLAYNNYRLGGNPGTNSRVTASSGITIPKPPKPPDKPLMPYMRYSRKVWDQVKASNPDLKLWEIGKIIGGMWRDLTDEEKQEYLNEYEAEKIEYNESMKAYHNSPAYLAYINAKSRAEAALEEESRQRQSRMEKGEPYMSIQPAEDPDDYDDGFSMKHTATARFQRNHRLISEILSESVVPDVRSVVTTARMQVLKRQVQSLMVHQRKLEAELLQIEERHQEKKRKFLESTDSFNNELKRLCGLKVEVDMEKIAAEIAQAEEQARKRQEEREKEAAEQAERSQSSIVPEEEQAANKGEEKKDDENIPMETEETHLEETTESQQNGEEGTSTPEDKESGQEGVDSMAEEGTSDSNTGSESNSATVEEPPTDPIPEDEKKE

effect of a mutation on the interaction | Variant
with no effect | I10V
disrupting interaction strength | F60L

Variants of: B2
Details: with mesh1_human HDDC3, Q8N4P3
Chain of mesh1_human HDDC3, Q8N4P3 (Q8N4P3 whole entry): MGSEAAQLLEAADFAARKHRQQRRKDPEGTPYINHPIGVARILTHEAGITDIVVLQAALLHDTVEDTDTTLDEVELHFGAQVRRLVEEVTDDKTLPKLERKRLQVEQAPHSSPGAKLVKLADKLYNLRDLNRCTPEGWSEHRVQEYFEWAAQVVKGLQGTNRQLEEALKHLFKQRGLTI

effect of a mutation on the interaction | Variant
with no effect | I10V
with no effect | N145K

Variants of: B3
Details: with trip6_human TRIP6, Q15654
Chain of trip6_human TRIP6, Q15654 (Q15654 whole entry): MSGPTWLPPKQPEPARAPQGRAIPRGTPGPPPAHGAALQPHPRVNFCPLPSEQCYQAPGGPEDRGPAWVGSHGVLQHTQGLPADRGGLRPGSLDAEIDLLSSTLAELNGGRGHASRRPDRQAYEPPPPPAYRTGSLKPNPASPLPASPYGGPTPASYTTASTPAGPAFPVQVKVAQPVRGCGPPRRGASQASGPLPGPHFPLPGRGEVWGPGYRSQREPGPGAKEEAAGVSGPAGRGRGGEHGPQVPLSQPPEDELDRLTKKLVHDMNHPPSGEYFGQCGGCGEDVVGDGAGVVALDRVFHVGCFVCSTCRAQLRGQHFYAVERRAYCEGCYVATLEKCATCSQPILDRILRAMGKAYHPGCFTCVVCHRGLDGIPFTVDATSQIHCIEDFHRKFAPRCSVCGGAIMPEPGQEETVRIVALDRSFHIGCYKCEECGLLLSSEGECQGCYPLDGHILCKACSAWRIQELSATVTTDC

effect of a mutation on the interaction | Variant
with no effect | C272S

Variants of: B3
Details: with maga4_human MAGEA4, P43358
Chain of maga4_human MAGEA4, P43358 (P43358 whole entry): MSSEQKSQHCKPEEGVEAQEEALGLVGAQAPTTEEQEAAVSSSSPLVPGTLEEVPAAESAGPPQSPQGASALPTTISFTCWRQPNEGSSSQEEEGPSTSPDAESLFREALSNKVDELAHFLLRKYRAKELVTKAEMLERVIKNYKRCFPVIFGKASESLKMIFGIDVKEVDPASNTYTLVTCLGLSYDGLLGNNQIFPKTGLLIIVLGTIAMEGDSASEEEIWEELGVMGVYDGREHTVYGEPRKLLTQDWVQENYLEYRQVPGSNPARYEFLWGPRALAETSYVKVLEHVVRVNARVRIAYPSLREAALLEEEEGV

effect of a mutation on the interaction | Variant
with no effect | C272S

Variants of: B3
Details: with atg5_human ATG5, Q9H1Y0
Chain of atg5_human ATG5, Q9H1Y0 (Q9H1Y0 whole entry): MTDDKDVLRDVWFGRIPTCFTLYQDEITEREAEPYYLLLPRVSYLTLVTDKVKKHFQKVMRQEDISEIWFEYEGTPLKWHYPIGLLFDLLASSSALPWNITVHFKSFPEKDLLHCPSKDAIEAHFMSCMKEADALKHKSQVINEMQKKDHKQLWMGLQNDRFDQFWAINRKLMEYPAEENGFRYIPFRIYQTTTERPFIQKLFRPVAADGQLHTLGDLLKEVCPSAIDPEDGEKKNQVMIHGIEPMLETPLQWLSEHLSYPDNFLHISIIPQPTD

effect of a mutation on the interaction | Variant
disrupting interaction strength | I404T
